The results in this text go back to publication PMC6699081, “Development and application of a transcriptional sensor for detection of heterologous acrylic acid production in E. coli” (Microbial Cell Factories, 2019).

Data set [1] deals with C=CC(N)=O. The data set can be described thus: purified protein. The conditions noted are these: 20 mM potassium phosphate pH 7.2, 150 mM NaCl, 2 mM DTT, 37 °C, 15 nM enzyme, 20 min.
The subject of data set [2] is T1, C=CC(N)=O.
T1 construct: C-terminal 6xHis tag, expressed in E. coli BL21(DE3), His-GraviTrap purified; catalytic triad E59, K134, C166
Put plainly: purified protein. The conditions noted are these: 20 mM potassium phosphate pH 7.2, 150 mM NaCl, 2 mM DTT, 37 °C, 15 nM enzyme, 20 min. Format: biochemical, Bacillus sp. (in: firmicutes).

For “RAPc8 amidase (Bacillus sp. (in: firmicutes); A77T)”, in the data set with C=CC(N)=O [1], the Km came to 4.5 ± 0.2 mM, the Vmax came out at 66.7 µM/min, the kcat stood at 74.1 ± 2.32 s⁻¹ and the kcat/Km is 16600 ± 357 M⁻¹ s⁻¹.

On to “RAPc8 amidase (Bacillus sp. (in: firmicutes); A77T/D294N/K342E/M203V/M45L)”, for which, in the data set on C=CC(N)=O [1], the Km worked out at 7.4 ± 1.3 mM, the Vmax stood at 176 µM/min, the kcat came to 196 ± 17.9 s⁻¹ and the kcat/Km is 26800 ± 2390 M⁻¹ s⁻¹.

Turning to “RAPc8 amidase (Bacillus sp. (in: firmicutes))”, in the data set on C=CC(N)=O [2], the Michaelis constant (Km) was 7.3 ± 0.1 mM, the Vmax turned out to be 106 µM/min, the kcat was 118 ± 6.75 s⁻¹ and the kcat/Km was 16300 ± 1060 M⁻¹ s⁻¹.

On to “RAPc8 amidase (Bacillus sp. (in: firmicutes); A77T/M203V)”, for which, in the data set with C=CC(N)=O [1], the Km turned out to be 4.6 ± 0.4 mM, the Vmax amounted to 64.7 µM/min, the kcat worked out at 71.9 ± 5.14 s⁻¹ and the kcat/Km turned out to be 15600 ± 598 M⁻¹ s⁻¹.

Consider “RAPc8 amidase (Bacillus sp. (in: firmicutes); M203V)”, for which, in the data set with C=CC(N)=O [1], the Km stood at 7.2 ± 1.1 mM, the Vmax stood at 147 µM/min, the kcat turned out to be 163 ± 18.6 s⁻¹ and the kcat/Km worked out at 22900 ± 1170 M⁻¹ s⁻¹.

As usually defined, the Km is the concentration of substrate that gives half-maximal velocity. The term Vmax denotes the rate approached at saturating substrate. What is called kcat is the maximal rate divided by the concentration of active sites. What is called kcat/Km is the second-order rate constant that governs catalysis at low substrate concentration.
